From patent US20220040297A1 (Chugai, published 2022)
Numbering of substitutions follows the chain as printed. Names and notes keep the numbering of the source. One block for each binder: values may come before it.

Columns and labels:
[1] = biological target: T1, biotin-labeled human CD154 (human, UniProt P29965 113-261, limits assumed, biotin-labeled); experiment: ECL competition: biotinylated CD154, CD3ε homodimer as competitor [2]
T1 construct: also called biotinylated human CD154
T1 sequence (looked up): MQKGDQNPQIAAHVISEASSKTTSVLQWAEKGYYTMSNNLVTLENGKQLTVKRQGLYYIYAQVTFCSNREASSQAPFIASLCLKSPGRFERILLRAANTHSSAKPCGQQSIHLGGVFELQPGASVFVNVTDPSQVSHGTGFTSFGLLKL
Procedure: (§1) Next, each obtained IgG was evaluated for its binding to CD3 and human CD154 at the same time by the competition method (electrochemiluminescence method (ECL method)).
(§2) A TBST solution containing 0.5% BSA (referred to as a blocking solution; the TBST solution was TBS (manufactured by Takara Bio Inc.) supplemented with 0.1% Tween 20) was added at 150 μL/well to streptavidin plate (MSD K.K.), and the plate was incubated at room temperature for 1 hour or longer. After removal of the blocking solution, each well was washed three times with 250 μL of a TBST solution. The antibody-antigen complex solution was added thereto at 50 L/well, and the plate was incubated at room temperature for 1 hour so that the biotinylated antigen-antibody-detection sulfo-tag antibody complex solution bound via the biotinylated antigen to the streptavidin plate. After removal of the antibody-antigen complex solution, each well was washed three times with a TBST solution, and a solution of 4× READ buffer (MSD K.K.) diluted 2-fold with water was added thereto at 150 μL/well, followed by the detection of the luminescence signal of the sulfo-tag using Sector Imager 2400 (MSD K.K.).

[2] = biological target: T1, biotin-labeled human CD154; experiment: ECL competition: biotinylated CD154, CD3ε homodimer as competitor [1]
Procedure: as §1, §2

CD3ε homodimer protein = biological target: T2, CD3ε homodimer protein (human, UniProt P07766 23-126, limits assumed); experiment: SPR (Biacore); CD3ε homodimer immobilized, one-arm antibody as analyte
T2 construct: also called human CD3ε homodimer protein; CD3e homodimer
T2 sequence (P07766 23-126 limits assumed): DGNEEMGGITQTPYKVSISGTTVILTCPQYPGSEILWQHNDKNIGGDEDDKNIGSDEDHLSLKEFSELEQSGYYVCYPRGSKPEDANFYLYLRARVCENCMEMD

B1: 154R5A02#1 (antibody, human IgG1, kappa, L234A L235A, N297A)
heavy: QVQLVESGGGLVQPGRSLRLSCAASGFTFSNAWMHWVRQAPGKGLEWVAQIKDRGNNYNTYYAPSVKGRFTISRDDSKNSIYLQMNSLKTEDTAVYYCRYVHYGSYFFSGSSFGVDIWGQGTTVTVSSASTKGPSVFPLAPSSKSTSGGTAALGCLVKDYFPEPVTVSWNSGALTSGVHTFPAVLQSSGLYSLSSVVTVPSSSLGTQTYICNVNHKPSNTKVDKKVEPKSCDKTHTCPPCPAPEAAGGPSVFLFPPKPKDTLMISRTPEVTCVVVDVSHEDPEVKFNWYVDGVEVHNAKTKPREEQYASTYRVVSVLTVLHQDWLNGKEYKCKVSNKALPAPIEKTISKAKGQPREPQVYTLPPSRCELTKNQVSLSCAVKGFYPSDIAVEWESNGQPENNYKTTPPVLDSDGSFFLVSKLTVDKSRWQQGNVFSCSVMHEALHNHYTQKSLSLSPDYKDDDDK
chain: EPKSSDKTHTCPPCPAPELLGGPSVFLFPPKPKDTLMISRTPEVTCVVVDVSHEDPEVKFNWYVDGVEVHNAKTKPREEQYNSTYRVVSVLTVLHQDWLNGKEYKCKVSNKALPAPIEKTISKAKGQPREPQVCTLPPSRDELTKNQVSLWCLVKGFYPSDIAVEWESNGQPENNYKTTPPVLDSDGSFFLYSKLTVDKSRWQQGNVFSCSVMHEALHNRYTQKSLSLSP
light: DIVMTQSPLSLPVTPGEPASISCRSSQSLVHSNRNTYLHWYQQKPGQAPRLLIYKVSNRFSGVPDRFSGSGSGTDFTLKISRVEAEDVGVYYCGQGTQVPYTFGQGTKLEIKRTVAAPSVFIFPPSDEQLKSGTASVVCLLNNFYPREAKVQWKVDNALQSGNSQESVTEQDSKDSTYSLSSTLTLSKADYEKHKVYACEVTHQGLSSPVTKSFNRGEC
notes: One-arm antibody
Relative ECL reaction (to no antigen coating), CD3ε[+] [1]: 10

B2: 154R3F02#2 (antibody, human IgG1, kappa, L234A L235A, N297A)
heavy: QVQLVESGGGLVQPGRSLRLSCAASGFTFSNAWMHWVRQAPGKGLEWVAQIKDRASGYNNYYAESVKGRFTISRDDSKNSIYLQMNSLKTEDTAVYYCRYVHYAQSVSAFFQYGVDAWGQGTTVTVSSASTKGPSVFPLAPSSKSTSGGTAALGCLVKDYFPEPVTVSWNSGALTSGVHTFPAVLQSSGLYSLSSVVTVPSSSLGTQTYICNVNHKPSNTKVDKKVEPKSCDKTHTCPPCPAPEAAGGPSVFLFPPKPKDTLMISRTPEVTCVVVDVSHEDPEVKFNWYVDGVEVHNAKTKPREEQYASTYRVVSVLTVLHQDWLNGKEYKCKVSNKALPAPIEKTISKAKGQPREPQVYTLPPSRCELTKNQVSLSCAVKGFYPSDIAVEWESNGQPENNYKTTPPVLDSDGSFFLVSKLTVDKSRWQQGNVFSCSVMHEALHNHYTQKSLSLSPDYKDDDDK
chain: B1 chain
light: B1 light
notes: One-arm antibody
Relative ECL reaction (to no antigen coating), CD3ε[+] [2]: 16

B3: 154R4B03#1 (antibody, human IgG1, kappa, L234A L235A, N297A)
heavy: QVQLVESGGGLVQPGRSLRLSCAASGFTFSNAWMHWVRQAPGKGLEWVAQIKDKQSQYANYYAPSVKGRFTISRDDSKNSIYLQMNSLKTEDTAVYYCRYVHYQSTSYSFYQGGVDAWGQGTTVTVSSASTKGPSVFPLAPSSKSTSGGTAALGCLVKDYFPEPVTVSWNSGALTSGVHTFPAVLQSSGLYSLSSVVTVPSSSLGTQTYICNVNHKPSNTKVDKKVEPKSCDKTHTCPPCPAPEAAGGPSVFLFPPKPKDTLMISRTPEVTCVVVDVSHEDPEVKFNWYVDGVEVHNAKTKPREEQYASTYRVVSVLTVLHQDWLNGKEYKCKVSNKALPAPIEKTISKAKGQPREPQVYTLPPSRCELTKNQVSLSCAVKGFYPSDIAVEWESNGQPENNYKTTPPVLDSDGSFFLVSKLTVDKSRWQQGNVFSCSVMHEALHNHYTQKSLSLSPDYKDDDDK
chain: B1 chain
light: B1 light
notes: One-arm antibody
Relative ECL reaction (to no antigen coating), CD3ε[+] [2]: 18

B5: CE115HA000 V11L/D72A/L78I/D101Q, no insertion (antibody, human IgG1, kappa, L234A L235A, N297A, name in Kabat numbering)
heavy: QVQLVESGGGLVQPGRSLRLSCAASGFTFSNAWMHWVRQAPGKGLEWVAQIKAKSNNYATYYAESVKGRFTISRADSKNSIYLQMNSLKTEDTAVYYCRYVHYGAYYGVQAWGQGTTVTVSSASTKGPSVFPLAPSSKSTSGGTAALGCLVKDYFPEPVTVSWNSGALTSGVHTFPAVLQSSGLYSLSSVVTVPSSSLGTQTYICNVNHKPSNTKVDKKVEPKSCDKTHTCPPCPAPEAAGGPSVFLFPPKPKDTLMISRTPEVTCVVVDVSHEDPEVKFNWYVDGVEVHNAKTKPREEQYASTYRVVSVLTVLHQDWLNGKEYKCKVSNKALPAPIEKTISKAKGQPREPQVYTLPPSRCELTKNQVSLSCAVKGFYPSDIAVEWESNGQPENNYKTTPPVLDSDGSFFLVSKLTVDKSRWQQGNVFSCSVMHEALHNHYTQKSLSLSPDYKDDDDK
chain: B1 chain
light: B1 light
Kd (CD3ε homodimer protein): 6.96 nM

B6: 154R4B03#4 (antibody, human IgG1, kappa, L234A L235A, N297A)
heavy: B3 heavy with N79S
chain: B1 chain
light: B1 light
notes: One-arm antibody
Relative ECL reaction (to no antigen coating), CD3ε[+] [2]: 20

The next lines start with the values.

Kd (CD3ε homodimer protein): 63.1 nM
B4: CE115HA000 V11L/D72A/L78I/D101Q with GGS inserted between Kabat 99 and 100 (antibody)
heavy: QVQLVESGGGLVQPGRSLRLSCAASGFTFSNAWMHWVRQAPGKGLEWVAQIKAKSNNYATYYAESVKGRFTISRADSKNSIYLQMNSLKTEDTAVYYCRYVHYGAGGSYYGVQAWGQGTTVTVSSASTKGPSVFPLAPSSKSTSGGTAALGCLVKDYFPEPVTVSWNSGALTSGVHTFPAVLQSSGLYSLSSVVTVPSSSLGTQTYICNVNHKPSNTKVDKKVEPKSCDKTHTCPPCPAPEAAGGPSVFLFPPKPKDTLMISRTPEVTCVVVDVSHEDPEVKFNWYVDGVEVHNAKTKPREEQYASTYRVVSVLTVLHQDWLNGKEYKCKVSNKALPAPIEKTISKAKGQPREPQVYTLPPSRCELTKNQVSLSCAVKGFYPSDIAVEWESNGQPENNYKTTPPVLDSDGSFFLVSKLTVDKSRWQQGNVFSCSVMHEALHNHYTQKSLSLSPDYKDDDDK
Fc: B1 chain
light: B1 light
notes: one-arm antibody

Kd (CD3ε homodimer protein): 110 nM
B7: CE115HA000 / GLS3000 one-arm antibody (antibody, human IgG1, kappa, L234A L235A, N297A)
heavy: B5 heavy with L11V, A75D, I81L, Q110D
chain: B1 chain
light: B1 light
notes: one-arm antibody

Relative ECL reaction (to no antigen coating), CD3ε[+] [1]: 1
B8: 154R5E11#3 (antibody, human IgG1, kappa, L234A L235A, N297A)
heavy: B1 heavy with N59A, T60A, P64E, S109A, G110S, S111F, S112Y, T123A
chain: B1 chain
light: B1 light
notes: One-arm antibody

Relative ECL reaction (to no antigen coating), CD3ε[+] [1]: 13
B9: 154R5F08#1 (antibody, human IgG1, kappa, L234A L235A, N297A)
heavy: B1 heavy with R54K, N57Q, N59A, P64E, S105T, S109A, G110L, S111P, S112A
chain: B1 chain
light: B1 light
notes: One-arm antibody

Relative ECL reaction (to no antigen coating), CD3ε[+] [1]: 10
B10: 154R5F08#3 (antibody, human IgG1, kappa, L234A L235A, N297A)
heavy: B1 heavy with R54K, N57Q, N59A, P64E, F70Y, S105T, S109A, G110L, S111P, S112A
chain: B1 chain
light: B1 light
notes: One-arm antibody

Relative ECL reaction (to no antigen coating), CD3ε[+] [1]: 106
B11: 154R5A02#2 (antibody, human IgG1, kappa, L234A L235A, N297A)
heavy: B1 heavy with V101A
chain: B1 chain
light: B1 light
notes: One-arm antibody
